Measurements taken from PMC5568661.
Like-named read-outs stand apart in the source and are kept apart here.

Tests used:
Assay in all cases: NMR 15N-HSQC titration
Ets-1 ΔN279 = molecular target: T1, Ets-1 ΔN279 (murine, UniProt P27577 279-440)
T1 sequence: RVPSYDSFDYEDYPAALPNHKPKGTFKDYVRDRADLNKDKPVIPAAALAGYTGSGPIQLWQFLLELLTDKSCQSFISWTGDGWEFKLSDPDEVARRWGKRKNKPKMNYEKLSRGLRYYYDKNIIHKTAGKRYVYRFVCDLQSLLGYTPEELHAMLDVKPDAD

Ets-1 ΔN301 [1] = molecular target: T2, Ets-1 ΔN301 (murine, UniProt P27577 301-440)
T2 sequence: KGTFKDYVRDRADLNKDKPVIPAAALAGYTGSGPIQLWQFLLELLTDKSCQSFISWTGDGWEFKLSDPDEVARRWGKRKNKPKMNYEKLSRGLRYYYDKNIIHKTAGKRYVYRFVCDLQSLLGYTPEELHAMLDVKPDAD

Ets-1 ΔN301 [2] = molecular target: T2, Ets-1 ΔN301; remark: listed apart in the source
Ets-1 ΔN301 [3] = molecular target: T2, Ets-1 ΔN301; remark: listed apart in the source
Ets-1 ΔN301 [4] = molecular target: T2, Ets-1 ΔN301; remark: listed apart in the source

B1: DNASP14 (dsDNA)
DNA 1: CCAAGCCGGAAGTG
DNA 2: CACTTCCGGCTTGG
binding result (Ets-1 ΔN279): binds

B2: DNASP9 (dsDNA)
DNA 1: GCCGGAAGT
DNA 2: ACTTCCGGC
binding result (Ets-1 ΔN301 [1]): binds

B3: DNANSP9 (dsDNA)
DNA 1: GCACTCTAG
DNA 2: CTAGAGTGC
Kd (Ets-1 ΔN301 [2]): ~10 µM

B4: DNASP12 (dsDNA)
DNA 1: CAGCCGGAAGTG
DNA 2: CACTTCCGGCTG
binding result (Ets-1 ΔN301 [3]): binds

B5: DNANSP15 (dsDNA)
DNA 1: GATGCAGTGTAGTCG
DNA 2: CGACTACACTGCATC
Kd (Ets-1 ΔN301 [4]): < 10 µM
